Measured values as given in the supplement of paper PMC10567573.

B1: USP39 (parent)
chain: TLSEAYIQIWKRRDNDETNQQGA
B2: HDAC6 (parent)
chain: DLMETTQYMNEGELRVLADTYDSV

Variants of: B1
Test: protein stability index of a GFP-peptide fusion (GPS, HEK-293T) (PSI 1-6); higher = more stable
Settings: c terminus: native
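Note: lentivirally expressed fusions sorted by FACS into six bins by GFP to DsRed ratio, PSI derived from sequencing read proportions per bin multiplied by bin number.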

Protein stability index of substitutions, site by site:
S3: G 2.32, C 2.38, F 2.14, Y 1.98, H 2.5, T 2.65, W 2.32
G22: V 3.41, W 2.45, M 3.1, P 3.05, E 4.79, K 4.09, Q 4.13, F 3
Q20: N 3.41, T 3.77, E 2.15, G 2.68, C 2.38, A 2.51
N15: H 3.1, P 1.77, M 1.86, G 2.68, A 2.38, V 2.12, D 3.03, F 2.24
D16: A 2.1, S 2.22, P 1.29, T 1.98, M 2.93, C 2.54, K 2.32, G 1.65, H 1.63, E 2.14
N19: C 2.1, M 2.06, T 3.51, E 3.9, V 2.32, K 2.77, H 2.75, W 2.61, G 3.69, L 1.79
Y6: I 2.88, Q 3.57, F 2.9, H 3.07, E 2.32
E4: Q 2.32, S 1.76, T 2.74, F 2.09, C 1.73, H 2.28, V 2.12
W10: D 3.97, E 3.69, Q 3.46, K 3.23, L 2.96, V 3.58, S 3.19, Y 2.53, N 2.85, C 2.45
I7: T 2.53, R 2.68, E 3.69, N 2.82, A 2.93, K 3.71
A5: I 2.02, M 2.19, Q 2.69, Y 2.57, S 2.31, W 2.18, H 2.39
I9: H 2.68, M 2.5, G 2.54, N 3.46, V 2.67, R 3.3, P 3.42, Q 3.23, F 2.03, L 2.21, D 2.84
K11: P 1.72, Q 1.78, D 1.58, Y 1.44, S 3.78, A 1.74
Q8: N 2.63, G 2.22, I 1.5, A 2.92, K 3.05, V 1.78, M 1.59, S 2.48, P 1.9, H 2.24, L 1.42
E17: Y 1.87, Q 1.55, F 1.99, V 1.5, D 2.79, C 2.33, L 1.71, N 1.77, R 1.63
L2: Y 2.12, M 2.98, D 3.46, S 3.08, G 3.77, E 3.08, W 2.63
R13: P 2.46, N 2.37, K 2.05, T 2.36, Y 1.56, F 1.48
T1: A 2.37, N 2.99, K 2.36, H 1.99, D 2.35, S 2.54
D14: E 2.07, G 2.06, Y 1.9, F 2, M 2.01
Q21: L 2.09, D 2.74, P 4.25, G 2.52, A 2.96
A23: V 4.23, E 4.22, F 3.71, Q 4.5, T 3.73, H 4.18, R 2.59, M 4.35
R12: K 2.89, G 3.15, L 1.98, D 3.2, I 3.09, Y 1.81, V 1.86, E 2.65
T18: E 2.56, P 1.87, S 1.89, Y 2.51, L 2.06

Variants of: B2
Test: as above
Settings: c terminus: a fixed tail appended

Protein stability index of substitutions, site by site:
Q7: S 2.02, T 2.37, P 3.69, K 2.12, G 2.05, A 1.53, D 2.35, L 2.12, R 1.14, V 1.67, Y 2.52, N 2.12, E 1.97, H 1.14
E4: G 1.7, W 1.5, T 3, C 1.74, Q 3.94, H 2.18, S 1.78, K 2.09, Y 1.51, P 2.23, R 3.36, M 1.31, V 1.83, N 1.98, A 2.03, D 2.52, I 1.11, F 1.48
N10: C 1.88, F 1.05, D 3.95, E 2.91, A 1.98
L2: M 3.77, A 2.33, I 1.55, C 3.12, H 5.04, K 4.96, T 4.52, Y 3.88, G 3.22, Q 4.68, W 3.31, D 5.2, F 3.49, P 4.8, N 4.32, V 1.62, E 4.57, R 4.52
Y8: I 4.19, G 4.5, K 4.56, R 3.66, H 4.78, E 4.21, N 4.67, M 4.29, D 4.62, F 1.65, S 5.09, Q 4.22, P 5.51, T 4.36, L 4.27, A 3.88, C 4.07, W 1.89
M3: R 3.77, D 4.6, E 3.74, Y 2.74, W 2, T 3.15, K 4.13, H 3.91, S 3.48, I 2.13, A 3.05, P 4.65, N 4.55, C 1.69, F 2.22, L 1.91, G 3.84, Q 3.29, V 2.2
T5: V 1.5, D 4.43, R 2.56, P 1.72, W 1.61, Q 1.99, C 2.38, E 2.54, Y 1.38, M 1.71, S 1.96, F 2.03, N 2.32, K 2.9, I 2.67, H 1.89, L 1.39, G 3.72
T6: H 2.29, R 2.24, V 1.46, F 1.44, Y 1.66, E 2.88, A 1.75, Q 1.94, S 1.56, W 1.73, P 2.3, G 3.57, K 1.02, C 2.5, N 2.42, M 1.63
M9: W 3.37, R 4.28, H 4.55, E 4.61, C 4.25, P 4.55, V 3.6, F 3.44, N 4.12, L 3.84, T 4.82, S 4.68, G 4.71, D 4.95, A 4.57, Y 4.31, I 4.14, K 4.24, Q 4.92
D1: W 1.55, I 3.02, L 2.05, A 1.77, V 1.25, R 3.01, C 2.48, Q 2.25, T 2.27, E 2.22, F 2.46, M 1.54, N 2.18, Y 2.04, G 3.06, K 2.28, H 1.53, P 4.29
